Non-standard residues stand in square brackets, D forms with d. No end group written: not given here. pS = N[C@@H](COP(=O)(O)O)C(=O)O; MBP = not defined here
Molecular target: T1, GST-CHC 331–542 fragment (UniProt Q00610 331-542)
T1 sequence: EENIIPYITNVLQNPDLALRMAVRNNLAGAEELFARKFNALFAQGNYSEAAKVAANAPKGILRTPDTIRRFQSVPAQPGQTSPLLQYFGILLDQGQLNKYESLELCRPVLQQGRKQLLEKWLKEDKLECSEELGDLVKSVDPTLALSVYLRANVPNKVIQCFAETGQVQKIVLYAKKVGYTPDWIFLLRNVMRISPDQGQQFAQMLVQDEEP
Assay: pull-down

B1: MBP-TACC3 522–577, phosphorylated by aurora A (domain or fragment)
chain: {MBP}-EESFRDPAEVLGTGAEVDYLEQFGTSSFKESALRKQ[pS]LYLKFDPLLRDSPGRPVPV
modifications: reading uncertain
  binding result: binds
